The values that follow come from the supplement of paper PMC11246515.

The series is described as follows: total protein half-life in vivo (active degradation + dilution); higher = more stable protein.
[1] abbreviates: E. coli NCM3722 delta-clpP delta-lon delta-hslV, growth: N-lim chemostat, doubling time 6 h.
The mark [2] stands for this setting: E. coli NCM3722 delta-clpP, growth: N-lim chemostat, doubling time 6 h.
Where [3] appears, read: E. coli NCM3722 delta-hslV, growth: N-lim chemostat, doubling time 6 h.
Where [4] appears, read: E. coli NCM3722 delta-lon, growth: N-lim chemostat, doubling time 6 h.
The mark [5] stands for this setting: E. coli NCM3722 delta-smpB, growth: N-lim chemostat, doubling time 6 h.
Where [6] appears, read: wild type E. coli NCM3722, growth: C-lim chemostat, doubling time 3 h.
Setting [7] is: wild type E. coli NCM3722, growth: C-lim chemostat, doubling time 6 h.
Setting [8] is: wild type E. coli NCM3722, growth: C-lim chemostat, doubling time 12 h.
Setting [9] is: wild type E. coli NCM3722, growth: N-lim chemostat, doubling time 6 h.
[10] abbreviates: wild type E. coli NCM3722, growth: N-lim chemostat, doubling time 12 h.
[11] abbreviates: wild type E. coli NCM3722, growth: P-lim chemostat, doubling time 6 h.
[12] abbreviates: wild type E. coli NCM3722, growth: P-lim chemostat, doubling time 12 h.

± gives the standard deviation of the averaged measurements. Bounds are passed on as bounds.

In the case of “MTAIAPVITIDGPSGAGKGTLCKAMAEALQWHLLDSGAIYRVLALAALHHHVDVASEDALVPLASHLDVRFVSTNGNLEVILEGEDVSGEIRTQEVANAASQVAAFPRVREALLRRQRAFRELPGLIADGRDMGTVVFPDAPVKIFLDASSEERAHRRMLQLQEKGFSVNFERLLAEIKERDDRDRNRAVAPLVPAADALVLDSTTLSIEQVIEKALQYARQKLALA [P0A6I0]”, the “total protein half-life in vivo” value worked out at 4.56 ± 0.24 h under setting [1]; 4.93 ± 0.48 h under setting [2]; 4.14 ± 0.16 h under setting [3]; 4.79 ± 0.34 h under setting [4]; 3.86 ± 0.083 h under setting [5]; 3.05 ± 0.14 h under setting [6]. In addition, the “total protein half-life in vivo” value runs as follows: under setting [7], 5.44 ± 0.4 h; under setting [8], 9.23 ± 1.1 h; under setting [9], 4.15 ± 0.046 h; under setting [10], 6.34 ± 1.1 h; under setting [11], 4.71 ± 0.26 h; under setting [12], 9.34 ± 0.78 h.

On to “MQSDKVLNLPAGYFGIVLGTIGMGFAWRYASQVWQVSHWLGDGLVILAMIIWGLLTSAFIARLIRFPHSVLAEVRHPVLSSFVSLFPATTMLVAIGFVPWFRPLAVCLFSFGVVVQLAYAAWQTAGLWRGSHPEEATTPGLYLPTVANNFISAMACGALGYTDAGLVFLGAGVFSWLSLEPVILQRLRSSGELPTALRTSLGIQLAPALVACSAWLSVNGGEGDTLAKMLFGYGLLQLLFMLRLMPWYLSQPFNASFWSFSFGVSALATTGLHLGSGSDNGFFHTLAVPLFIFTNFIIAILLIRTFALLMQGKLLVRTERAVLMKAEDKE”, for which the “total protein half-life in vivo” value runs as follows: under setting [5], 6.2 h; under setting [7], above 8 h; under setting [11], 6.53 h.

“MTNITKRSLVAAGVLAALMAGNVALAADVPAGVTLAEKQTLVRNNGSEVQSLDPHKIEGVPESNISRDLFEGLLVSDLDGHPAPGVAESWDNKDAKVWTFHLRKDAKWSDGTPVTAQDFVYSWQRSVDPNTASPYASYLQYGHIAGIDEILEGKKPITDLGVKAIDDHTLEVTLSEPVPYFYKLLVHPSTSPVPKAAIEKFGEKWTQPGNIVTNGAYTLKDWVVNERIVLERSPTYWNNAKTVINQVTYLPIASEVTDVNRYRSGEIDMTNNSMPIELFQKLKKEIPDEVHVDPYLCTYYYEINNQKPPFNDVRVRTALKLGMDRDIIVNKVKAQGNMPAYGYTPPYTDGAKLTQPEWFGWSQEKRNEEAKKLLAEAGYTADKPLTINLLYNTSDLHKKLAIAASSLWKKNIGVNVKLVNQEWKTFLDTRHQGTFDVARAGWCADYNEPTSFLNTMLSNSSMNTAHYKSPAFDSIMAETLKVTDEAQRTALYTKAEQQLDKDSAIVPVYYYVNARLVKPWVGGYTGKDPLDNTYTRNMYIVKH”: the “total protein half-life in vivo” value reads like this: under setting [1], 5.05 ± 0.41 h; under setting [2], 5.96 ± 0.98 h; under setting [3], 6.62 ± 0.85 h; under setting [4], 6.25 ± 0.66 h; under setting [5], 6.01 ± 0.075 h; under setting [6], 3.13 ± 0.1 h. The “total protein half-life in vivo” value under setting [7] came out at 6.215 ± 0.047 h; the “total protein half-life in vivo” value under setting [8] came to 12.7 ± 1.9 h; the “total protein half-life in vivo” value under setting [9] turned out to be 6.22 ± 0.13 h; the “total protein half-life in vivo” value under setting [10] was 12 ± 0.33 h; the “total protein half-life in vivo” value under setting [11] was 6.03 ± 0.071 h; the “total protein half-life in vivo” value under setting [12] turned out to be 12.3 ± 0.35 h.

Consider “MNSLRPELLELTPQALTALSNAGFVKRSLKELENGNVPEISHENDALIATFSDGVRTQLANGQALKEAQCSCGANGMCRHRVMLVLSYQRLCATTQSTEKEEEWDPAIWLEELATLPDATRKRAQALVAKGITIELFCAPGEIPSARLPMSDVRFYSRSSIRFARCDCIEGTLCEHVVLAVQAFVEAKAQQAEFNHLIWQMRSEHVTSSDDPFASEEGNACRQYVQQLSQTLWLGGISQPLIHYEAAFNRALQAAETCNWRWVSESLRQLRASVDAFHARASHYNAGECLHQLAALNSRLNCAQEMARRDSIGEVPPVPWRTVVGSGIAGEAKLDHLRLVSLGMRCWQDIEHYGLRIWFTDPDTGSILHLSRSWPRSEQENSPAATRRLFSFQAGALAGGQIVSQAAKRSADGELLLATRNRLSSVVPLSPDAWQMLSAPLRQPGIVALREYLRQRPPACIRPLNQVDNLFILPVAECISLGWDSSRQTLDAQVISGEGEDNVLTLSLPASASAPYAVERMAALLQQTDDPVCLVSGFVSFVEGQLTLEPRVMMTKTRAWALDAETTPVAPLPSASVLPVPSTAHQLLIRCQALLIQLLHNGWRYQEQSAIGQA”, for which, under setting [1], the “total protein half-life in vivo” value stood at 3.47 h.

For “MKATKLVLGAVILGSTLLAGCSSNAKIDQLSSDVQTLNAKVDQLSNDVNAMRSDVQAAKDDAARANQRLDNMATKYRK”, the “total protein half-life in vivo” value by setting is: under setting [1], 5.79 ± 1.4 h; under setting [2], 6.38 ± 0.67 h; under setting [3], 5.95 ± 0.4 h; under setting [5], 5.03 ± 0.051 h; under setting [6], 3.11 ± 0.35 h; under setting [7], 4.92 ± 0.76 h. The “total protein half-life in vivo” value by setting is: under setting [8], 11.2 ± 3.2 h; under setting [9], 5.81 ± 0.7 h; under setting [10], 11.7 ± 3.1 h; under setting [11], 5.66 ± 0.3 h; under setting [12], 12.1 ± 0.34 h.

In the case of “MKPNIHPEYRTVVFHDTSVDEYFKIGSTIKTDREIELDGVTYPYVTIDVSSKSHPFYTGKLRTVASEGNVARFTQRFGRFVSTKKGA [P0A7N1]”, the “total protein half-life in vivo” value is 2.8 h under setting [5]; 2.784 ± 0.022 h under setting [6]; 5.71 ± 0.51 h under setting [7]; 9.33 h under setting [8]; 6.22 h under setting [11].

In the case of “MFDYILSLGGTVFVPIIMIVIGLIFRIPWLQAIKAGVTVGIGFVGMGLVIVMAIDSLSPPIKVMIERFGLALHVFDVGAGPASGVGYATAIGAMIIPVIFLLNVAMLVTRLTKTMNVDIYNYWHYAITGTVVQLMTGSLIYGVLGAICHAALSLKMADWTAKRVQNIVGLEGISIPQGYGSSSVPLFVLLDAIYEKIPFMKGRNIDAQEIQKRYGMVGDPVIIGVVLGLIFGLAAGEGFKGCASLMITVAAIMVLFPRMIRLIVEGLLPISDGARKFFQKYFKGREVYIGLDTAVTLGHPTTIAVGLLLIPIMLILASILPGNKVLPLADLPVAPFFICMATVIHRGDLVRTLISGVIVMITVLLIATQFAPYFTEMALKGGFSFAGESAQISALSVGNMFGWSISELMSLGIIGVVVAVGIVASVVLFLRKRELSE”, the “total protein half-life in vivo” value was 7.4 h under setting [5] and 6 ± 0.68 h under setting [7].

As for “MRRVNILCSFALLFASHTSLAVTYPLPPEGSRLVGQSFTVTVPDHNTQPLETFAAQYGQGLSNMLEANPGADVFLPKSGSQLTIPQQLILPDTVRKGIVVNVAEMRLYYYPPDSNTVEVFPIGIGQAGRETPRNWVTTVERKQEAPTWTPTPNTRREYAKRGESLPAFVPAGPDNPMGLYAIYIGRLYAIHGTNANFGIGLRVSQGCIRLRNDDIKYLFDNVPVGTRVQIIDQPVKYTTEPDGSNWLEVHEPLSRNRAEYESDRKVPLPVTPSLRAFINGQEVDVNRANAALQRRSGMPVQISSGSRQMF”, the “total protein half-life in vivo” value reads like this: under setting [1], 5.58 ± 1.1 h; under setting [2], 6.17 ± 0.48 h; under setting [3], 5.997 ± 0.037 h; under setting [4], 6.9 ± 1 h; under setting [5], 5.83 ± 0.5 h; under setting [6], 3.35 ± 0.46 h. The “total protein half-life in vivo” value runs as follows: under setting [7], 5.64 ± 0.53 h; under setting [8], 10.128 ± 0.0088 h; under setting [9], 6.43 ± 0.88 h; under setting [10], 11.4 ± 0.34 h; under setting [11], 5.24 ± 0.69 h; under setting [12], 11.3 ± 0.51 h.

On to “MFEIHPVKKVSVVIPVYNEQESLPELIRRTTTACESLGKEYEILLIDDGSSDNSAHMLVEASQAENSHIVSILLNRNYGQHSAIMAGFSHVTGDLIITLDADLQNPPEEIPRLVAKADEGYDVVGTVRQNRQDSWFRKTASKMINRLIQRTTGKAMGDYGCMLRAYRRHIVDAMLHCHERSTFIPILANIFARRAIEIPVHHAEREFGESKYSFMRLINLMYDLVTCLTTTPLRMLSLLGSIIAIGGFSIAVLLVILRLTFGPQWAAEGVFMLFAVLFTFIGAQFIGMGLLGEYIGRIYTDVRARPRYFVQQVIRPSSKENE”, for which the “total protein half-life in vivo” value amounted to 5.758 ± 0.026 h under setting [1]; 6.356 ± 0.027 h under setting [3]; 6.156 ± 0.045 h under setting [4]; 6.14 ± 0.12 h under setting [5]; 2.84 ± 0.4 h under setting [6]; 6.77 ± 1.7 h under setting [7]. For the same sequence, the “total protein half-life in vivo” value by setting is: under setting [8], 11.6 ± 0.56 h; under setting [9], 6.21 ± 0.57 h; under setting [10], 12.6 ± 0.58 h; under setting [11], 6.08 ± 0.52 h; under setting [12], 12.1 ± 0.46 h.
